Assay results published in paper PMC5472690, “3-Hydroxybenzoate 6-Hydroxylase from Rhodococcus jostii RHA1 Contains a Phosphatidylinositol Cofactor” (Frontiers in Microbiology, 2017).

What was measured:
[1] = biological target: T1, Rj3HB6H (Rhodococcus jostii, UniProt Q0SFK6); assay: X-ray crystal structure, […] Å; type: binding; conditions: pH 8.5 precipitant; co-bound phospholipid
T1 construct: gene RHA1_ro01869; full length, C-terminal His6 tag, produced in R. jostii RHA1#2; N-terminal Met lacking; 46,761 Da subunit; homodimer

[2] = test system: O=C(O)c1cccc(O)c1; assay: purified protein; conditions: fixed NADH, 50 mM Tris-SO4, pH 8.0, 25°C
[3] = substrate: NC(=O)C1=CN([C@@H]2O[C@H](COP(=O)(O)OP(=O)(O)OC[C@H]3O[C@@H](n4cnc5c(N)ncnc54)[C@H](O)[C@@H]3O)[C@@H](O)[C@H]2O)C=CC1; assay: purified protein; conditions: fixed 3-hydroxybenzoate, 50 mM Tris-SO4, pH 8.0, 25°C

## Cc1cc2nc3c(=O)[nH]c(=O)nc-3n(C[C@H](O)[C@H](O)[C@H](O)COP(=O)(O)OP(=O)(O)OC[C@H]3O[C@@H](n4cnc5c(N)ncnc54)[C@H](O)[C@@H]3O)c2cc1C [FAD]
[1]
  X-ray crystal structure, 2.3 Å: The isoalloxazine moiety of FAD was refined with full occupancy

## Rj3HB6H (Rhodococcus jostii RHA1)
[2]
  Km: 35 ± 3 µM
  kcat: 20 ± 1 s⁻¹

B1: Rj3HB6H (Rhodococcus jostii RHA1) (protein)
chain: SNLQDARIIIAGGGIGGAANALALAQKGANVTLFERASEFGEVGAGLQVGPHGARILDSWGVLDDVLSRAFLPKNIVFRDAITAEVLTKIDLGSEFRGRYGGPYFVTHRSDLHATLVDAARAAGAELHTGVTVTDVITEGDKAIVSTDDGRTHEADIALGMDGLKSRLREKISGDEPVSSGYAAYRGTTPYRDVELDEDIEDVVGYIGPRCHFIQYPLRGGEMLNQVAVFESPGFKNGIENWGGPEELEQAYAHCHENVRRGIDYLWKDRWWPMYDREPIENWVDGRMILLGDAAHPPLQYLASGAVMAIEDAKCLADYAAEDFSTGGNSAWPQILKEVNTERAPRCNRILTTGRMWGELWHLDGTARIARNELFRTRDTSSYKYTDWLWGYSSDRAS
[3]
  Km: 68 ± 5 µM
  kcat: 20 ± 1 s⁻¹
